Experimental data from patent publication US20120301469A1 (Ablynx, published 2012).

Assays:
[1] = biological target: T1, hRSV FTM-NN (membrane anchorless form of the Long fusion protein, 70 kDa) (human respiratory syncytial virus, …, UniProt P12568 26-524); assay: competition ELISA on FTM-NN, competitor Synagis Mab, purified Nanobody
T1 construct: also called FTM-NN (Long); hRSV FTM-protein

[2] = biological target: protein F of hRSV strain Long, on virus (inactivated hRSV Long, Hytest #8RSV79; RSV Long LM-2, ATCC VR-26) (human respiratory syncytial virus, …, UniProt P12568 26-574); assay: cell-based or functional assay
[3] = biological target: T2, protein F of hRSV strain B-1 (on RSV B-1-infected Hep2 cells and on virus) (human respiratory syncytial virus, …, UniProt P13843 26-574); assay: cell-based or functional assay
[4] = biological target: T1, hRSV FTM-NN (membrane anchorless form …); assay: SPR (Biacore), FTM-NN amine-coupled on CM5 chip, 1:1 Langmuir fit
[5] = biological target: T1, hRSV FTM-NN (membrane anchorless form …); assay: competition ELISA on FTM-NN, competitor 101F Fab, purified Nanobody
[6] = biological target: T1, hRSV FTM-NN (membrane anchorless form …); assay: ELISA on immobilized FTM-NN, periplasmic extract 1:10
[7] = biological target: T2, protein F of hRSV strain B-1 (on RSV …); assay: cell ELISA on RSV B-1-infected Hep2 cells, periplasmic extract 1:50
[8] = biological target: T2, protein F of hRSV strain B-1 (on RSV …); assay: cell-based or functional assay; remark: listed apart in the source
[9] = biological target: T2, protein F of hRSV strain B-1 (on RSV …); assay: cell ELISA on RSV B-1-infected Hep2 cells, periplasmic extract 1:200

B1: Nanobody NC41 (VHH)
VHH: EVQLVESGGGLVQAGGSLSISCAASGGSLSNYVLGWFRQAPGKEREFVAAINWRGDITIGPPNVEGRFTISRDNAKNTGYLQMNSLAPDDTAVYYCGAGTPLNPGAYIYDWSYDYWGRGTQVTVSS
[1]
  IC50: 416 nM
[2]
  Neutralization Long IC50: 221 nM
[3]
  micro-neutralization of RSV B-1: > 10 µM
[4]
  Kd: 8.1 nM
  koff: 0.0067 s⁻¹
  kon: 820000 M⁻¹ s⁻¹

B2: Nanobody 23E5 (VHH)
VHH: EVQLMESGGGLVQAGGSLRLSCAASGGTFSSYAMGWFRQAPGEERDFVAAIGWSGNSPYYAQFVKGRFTISRDNAKNTVHLQMNSLKPEDTAVYYCAAAHNTMGSDYEGYDYWGQGTQVTVSS
notes: also called PMP23E5; PRSV23E5
[5]
  IC50: 1.73 nM
[6]
  Binding Long 1:10 PE (Fold blanc): 3.4 fold blanc
[7]
  Binding Hep2-B-1 (% control) 1:50 PE: 103 % control
[8]
  Neutralization B-1 IC50: > 15000 nM
[4]
  Kd: 7.9 nM
  koff: 0.0013 s⁻¹
  kon: 160000 M⁻¹ s⁻¹
[9]
  Binding Hep2-B-1 (% control) 1:200 PE: 82 % control

B3: Nanobody 1E4 (VHH)
VHH: EVQLVESGGGLVQAGGSLRLSCEASGRTFSSYGMGWFRQAPGKEREFVAAVSRLSGPRTVYADSVKGRFTISRDNAENTVYLQMNSLKPEDTAVYTCAAELTNRNPGAYYYTWAYDYWGQGTQVTVSS
notes: also called PMP1E4; PRSV1E4
[7]
  Binding Hep2-B-1 (% control) 1:50 PE: 55 % control
[8]
  Neutralization B-1 IC50: > 10000 nM
[3]
  micro-neutralization of RSV B-1: > 10 µM
[9]
  Binding Hep2-B-1 (% control) 1:200 PE: 55 % control

B4: Nanobody 20B2 (VHH)
VHH: EVQLVESGGGLVQAGGSLRLSCEASGRTFSSYDMGWFRQAPGKEREFVAAVTRWSGARGVYADSVKGRFTISRDNAENTVHLQMNSLKPEDTAVYTCAADSTNRNSGAVYYTWAYDYWGQGTQVTVSS
notes: also called PMP20B2; PR5V20B2
[6]
  Binding Long 1:10 PE (Fold blanc): 3 fold blanc
[7]
  Binding Hep2-B-1 (% control) 1:50 PE: 32 % control
[8]
  Neutralization B-1 IC50: > 10000 nM
[2]
  Neutralization Long IC50: 1760 nM
[3]
  micro-neutralization of RSV B-1: > 10 µM
[9]
  Binding Hep2-B-1 (% control) 1:200 PE: 32 % control

B5: Nanobody 8A1 (VHH)
VHH: EVQLVESGGGLVQPGGSLRVSCAASGFTFNDYIMGWFRQAPGKERMFIAAISGTGTIKYYGDLVRGRFTISRDNAKNTVYLRIDSLNPEDTAVYYCAARQDYGLGYRESHEYDYWGQGTQVTVSS
notes: also called PMP8A1; PRSV8A1
[5]
  IC50: 2.81 nM
[6]
  Binding Long 1:10 PE (Fold blanc): 3.7 fold blanc
[7]
  Binding Hep2-B-1 (% control) 1:50 PE: 98 % control
[8]
  Neutralization B-1 IC50: 12200 nM
[9]
  Binding Hep2-B-1 (% control) 1:200 PE: 92 % control

B6: Nanobody 1B2 (VHH)
VHH: EVQLVESGGGLVQAGGSLRLSCAASGPTFSADTMGWFRQAPGKEREFVATIPWSGGIAYYSDSVKGRFTMSRDNAKNTVDLQMNSLKPEDTALYYCAGSSRIYIYSDSLSERSYDYWGQGTQVTVSS
notes: c-myc/His6-tagged; also called PMP1B2; PRSV1B2
[5]
  IC50: 2.91 nM
[6]
  Binding Long 1:10 PE (Fold blanc): 3.8 fold blanc
[7]
  Binding Hep2-B-1 (% control) 1:50 PE: 88 % control
[8]
  Neutralization B-1 IC50: 7380 nM
[4]
  Kd: 0.44 nM
  koff: 0.00017 s⁻¹
  kon: 380000 M⁻¹ s⁻¹
[9]
  Binding Hep2-B-1 (% control) 1:200 PE: 85 % control

B7: Nanobody 13C1 (VHH)
VHH: EVQLVESGGGLVQPGGSLRLSCEASGFTWDYYVIGWFRQAPGKEREGLSCISSDGSTTYADSVKGRFTISRDNAKNTVYLQMNSLEPEDTAVYYCATDPALGCYSGSYYPRYDYWGQGTQVTVSS
notes: also called PMP13C1; PRSV13C1
[5]
  IC50: 3.83 nM
[6]
  Binding Long 1:10 PE (Fold blanc): 3 fold blanc
[7]
  Binding Hep2-B-1 (% control) 1:50 PE: 104 % control
[8]
  Neutralization B-1 IC50: 11400 nM
[9]
  Binding Hep2-B-1 (% control) 1:200 PE: 86 % control

B8: Nanobody 8B10 (VHH)
VHH: EVQLVESGGGLVQAGASLRLSCAASGLAFSRYAMGWFRQAPGKERESVAAISSSGDNIYYADSVKGQFTMSRDNAKSSVYLQMINLKPEDTAVYYCAATSPLFVASDYFEASRYGYWGQGTQVTVSS
notes: also called PMP8B10; PRSV8B10
[7]
  Binding Hep2-B-1 (% control) 1:50 PE: 94 % control
[8]
  Neutralization B-1 IC50: > 15000 nM
[9]
  Binding Hep2-B-1 (% control) 1:200 PE: 84 % control

B9: Nanobody 13B4 (VHH)
VHH: EVQLVESGGGLVQAGGSLRLSCAASGFTFDDYAIGWFRQAPGKEREAVSCISSSDGSTYYADSVKGRFTISSDNAKNMVYLQMNSLKPEDTAVYYCAADLLRTAVGCLDYRGTYYPRTTMDYRGKGTLVTVSS
notes: also called PMP13B4; PRSV13B4
[5]
  IC50: 3.69 nM
[6]
  Binding Long 1:10 PE (Fold blanc): 2.7 fold blanc
[7]
  Binding Hep2-B-1 (% control) 1:50 PE: 75 % control
[8]
  Neutralization B-1 IC50: > 15000 nM
[9]
  Binding Hep2-B-1 (% control) 1:200 PE: 56 % control
